The values below come from patent publication US20260167714A1 (COHERUS BIOSCIENCES, published 2026).

Experiment [1] has as its target T1, human ILT4 expressed on cells (human, UniProt Q8N423 22-597). Put plainly: cell-based or functional assay.
Experiment [2] deals with T1, human ILT4 expressed on cells. As to the kind of experiment: cell-based or functional assay. The source holds these as a separate data set.
Experiment [3] shares this target. Put plainly: flow based HLA-G blocking assay.
For experiment [4], the target named is T2, recombinant human ILT4 (LILRB2) (human, UniProt Q8N423 22-460).
T2 construct: Bought protein (Acro Biosystems or R&D Systems); also called ILTR4
Put plainly: SPR, high resolution kinetics; reference Hz156.

The target in experiment [5] is T2, recombinant human ILT4 (LILRB2). As to the kind of experiment: KinExA, solution equilibrium, n-curve analysis. The method, then:
Kinetic Exclusion Assay (KinExA®) was performed to measure the equilibrium binding affinity and kinetics between human ILT4 and four humanized LALA-Fc modified antibodies in solution. For affinity analysis, the equilibrium dissociation constant, KD, was experimentally determined and reflects the strength of the binding interaction. The rate of association, kₒₙ, was also experimentally determined, while the rate of dissociation, koff, is calculated based on the following equation: koff=KD×kₒₙ
The binding affinity (KD), association (kₒₙ), and dissociation rate constants (koff) were measured for 4 different Humanized LALA IgG antibodies to ILT4 using KinExA. An n-curve analysis of at least two different curves, run at two different CBP concentrations, was used to determine the KD of the interactions The ILT4 was used as the concentration reference for all curves. All of the binding systems have low error and well defined 95% confidence intervals giving confidence to the measurements: […]

Experiment [6] deals with T1, human ILT4 expressed on cells. As to the kind of experiment: flow cytometry, AF647-labelled mAb on ILT4-CHO cells. The method, then:
AF647-Hz45.01-LALA and AF647-Hz156.03-LALA at various concentrations (0-10 μg/ml) were incubated with ILT4-CHO cells and analyzed by flow cytometry.

Experiment [7] addresses T2, recombinant human ILT4 (LILRB2). Put plainly: SPR, Biacore T200, mAb captured on anti-Fc, ILT4 injected, medium resolution, 25 C. The method, boiled down: (§1)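 Mouse, chimeric or humanized mAbs captured on anti-Fc surfaces (CM4 chip); ILT4 injected at 101 to 0.79 nM, 2-fold series, 90 s association, 1200 s dissociation. Run at 25° C in HBS-P+ pH 7.4 with 100 μg/ml BSA; double-referenced global 1:1 fit with mass-transport term, KD=koff/kon.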

In experiment [8] the target is T1, human ILT4 expressed on cells. Put plainly: flow cytometry, blockade of PE-HLA-G tetramer binding to ILT4-CHO cells, Experiment 1.
Experiment [9] has the same target. As to the kind of experiment: flow cytometry, blockade of PE-HLA-G tetramer binding to ILT4-CHO cells, Experiment 2.
Experiment [10] shares this target. As to the kind of experiment: flow cytometry on ILT4-CHO cells, unlabelled mAb titrated; competitor AF647-Hz156.03-LALA. The procedure: Competition binding assays were performed. […] Binding activities were measured by flow cytometry.
Anti-human ILT4 mAbs at various concentrations (0-15 μg/ml) were incubated with ILT4-CHO cells. Cells were washed and stained with AF647-Hz156.03-LALA. Cells were analyzed by flow cytometry.

The target in experiment [11] is T2, recombinant human ILT4 (LILRB2). As to the kind of experiment: SPR, Biacore 8K, mAb captured on anti-human Fc, LILRB2 at 100 nM; legend: +++ binding (1-2 nM KD). The procedure:
(§2) SPR was used to determine the specificity of four humanized anti-ILT4 mAbs for binding to LILRB2 and to determine any cross-reactivity with nine other LILRA and LILRB family members. LILR proteins were purchased from Acro Biosystems or R&D Systems, with sequence provided below. The studies were performed with a Biacore 8K instrument using a CM4 sensor chip with a running buffer of HBS-P+, 100 μg/mL BSA. Anti-human Fc specific capture surfaces were prepared using standard amine coupling chemistry. MAb was captured to flow cell 2 with flow cell 1 serving as the reference flow cell. Each of the nine family members and LILRB2 were injected at 100 nM at 30 μL/min for 90 sec with 240 sec of dissociation. […] All sensorgrams were doubled-referenced during processing of the data.

Experiment [12] deals with T1, human ILT4 expressed on cells. Put plainly: flow cytometry, blockade of PE-HLA-A tetramer (5 ug/ml) binding to ILT4-CHO cells, Experiment 2 (table title prints HLA-G).
Experiment [13] deals with T2, recombinant human ILT4 (LILRB2). As to the kind of experiment: SPR, Biacore T200, medium resolution; koff held at its limit of 4.27e-5 s^-1. A digest of the protocol:
as §1

The target is the same in experiment [14]. Put plainly: SPR, Biacore 8K, mAb captured on anti-human Fc, LILRB2 at 100 nM; legend: ++++ tight binding (<100 pM KD). The method, then:
as §2

Where only a bound is given, the exact number is not on record here.

T2 sequence (Q8N423 other isoform, or with tags, fused parts or gaps limits assumed): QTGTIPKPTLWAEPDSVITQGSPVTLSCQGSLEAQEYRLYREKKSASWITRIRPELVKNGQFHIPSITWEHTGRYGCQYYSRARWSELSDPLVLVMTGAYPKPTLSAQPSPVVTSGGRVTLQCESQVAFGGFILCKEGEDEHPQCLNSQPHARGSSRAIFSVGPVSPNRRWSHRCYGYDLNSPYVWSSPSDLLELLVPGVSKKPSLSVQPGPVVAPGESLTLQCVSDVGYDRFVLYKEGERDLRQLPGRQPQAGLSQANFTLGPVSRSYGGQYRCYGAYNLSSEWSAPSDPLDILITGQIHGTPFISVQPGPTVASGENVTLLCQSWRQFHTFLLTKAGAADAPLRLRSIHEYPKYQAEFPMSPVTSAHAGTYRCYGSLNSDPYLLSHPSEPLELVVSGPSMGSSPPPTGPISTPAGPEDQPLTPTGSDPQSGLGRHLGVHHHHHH
T1 sequence (Q8N423 22-597): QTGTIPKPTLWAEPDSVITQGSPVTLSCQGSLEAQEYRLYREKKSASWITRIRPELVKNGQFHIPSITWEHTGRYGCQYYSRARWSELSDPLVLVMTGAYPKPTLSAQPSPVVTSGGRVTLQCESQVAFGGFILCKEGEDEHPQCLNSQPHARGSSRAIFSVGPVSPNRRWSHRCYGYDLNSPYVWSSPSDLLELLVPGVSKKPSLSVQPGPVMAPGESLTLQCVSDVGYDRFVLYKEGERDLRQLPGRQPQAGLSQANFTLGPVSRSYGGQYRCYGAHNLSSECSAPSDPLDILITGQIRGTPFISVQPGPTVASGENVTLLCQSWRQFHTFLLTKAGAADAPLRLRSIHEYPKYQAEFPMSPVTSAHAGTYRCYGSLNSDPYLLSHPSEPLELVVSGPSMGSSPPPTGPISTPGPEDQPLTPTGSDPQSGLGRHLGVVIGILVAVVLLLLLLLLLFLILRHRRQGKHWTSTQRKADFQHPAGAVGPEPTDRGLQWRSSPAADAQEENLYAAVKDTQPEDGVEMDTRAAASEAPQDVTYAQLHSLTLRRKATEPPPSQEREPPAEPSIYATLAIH

B1: Hz45.01-LALA (antibody, human IgG1, kappa, L234A L235A, V domains shown)
VH: QVQLVQSGAEVKKPGASVKVSCKASGYTFTDYYMNWVRQAPGQRLEWIGDINPNNGGTSYNQKFKGRATITVDTSASTAYMELSSLRSEDTAVYYCARGGAELTGTYWYFDVWGQGTTVTVSS
VL: DIQMTQSPSSLSASVGDRVTITCRASENIYSNLAWYQQKPGKAPKVLVYGATNLADGVPSRFSGSGSGTEYTLTISSLQPEDFATYYCQHFWDSPFTFGGGTKVEIKR
notes: Humanized L45S4, human IgG1 L234A/L235A, kappa; also called Humanized 45_01; Hu IgG 45_01 LALA
With B1, the “EC50 value of TNFa production, donor 4” value in [1] is 0.0138 µg/mL. In addition, the “EC50 value of TNFa production, donor 5” value in experiment [1] was 0.0185 µg/mL. Further, the “EC50 value of IL-6 production, donor 4” value in experiment [2] came out at 0.00603 µg/mL. Also, the “EC50 value of IL-6 production, donor 5” value in experiment [2] stood at 0.0159 µg/mL. Moreover, the concentration for half-maximal inhibition (IC50) in [3] stood at 0.092 µg/mL; in [8] it was 0.198 µg/mL; in experiment [9], 0.119 µg/mL; in experiment [10], 0.381 µg/mL; in [12], 0.122 µg/mL. The “fold faster off-rate than Hz156” value in [4] turned out to be 29 fold. For the same molecule, the dissociation constant Kd in [5] is 0.0851 nM; in experiment [7], 1.27 nM. The molecule also had an EC50 in experiment [6] of 162 µg/mL. In addition, the koff in [7] worked out at 0.000418 s⁻¹. Further, the on-rate (kon) in experiment [7] is 330000 M⁻¹ s⁻¹. Also, in experiment [11], the dissociation constant KD is 1 to 2 nM.

B2: Hz156.03-LALA (antibody, human IgG1, kappa, L234A L235A, V domains shown)
VH: QVQLVQSGAEVKKPGSSVKVSCKASGYTFTDYYMNWVRQAPGQGLEWIARIYPGVYRTHYNEKFKDRVTLTADKSTSTAYMELSSLRSEDTAVYYCARSGYYGGTYEEDAMDYWGQGTTVTVSS
VL: DIQMTQSPSSLSASVGDRVTITCRASENIYSNLAWYQQKPGKAPKLLVYAATSLADGVPSRFSGSGSGTDYTLTISSLQPEDFATYYCQNFWDTPYTFGQGTKVEIKR
notes: Humanized L156S3, human IgG1 L234A/L235A, kappa
As to B2, in experiment [1], the “EC50 value of TNFa production, donor 4” value came out at 0.00724 µg/mL. Also, the “EC50 value of TNFa production, donor 5” value in [1] amounted to 0.0236 µg/mL. Moreover, in experiment [2], the “EC50 value of IL-6 production, donor 4” value was found to be 0.0082 µg/mL. Moreover, the “EC50 value of IL-6 production, donor 5” value in experiment [2] came out at 0.0213 µg/mL. In addition, the IC50 in [3] was 0.212 µg/mL; in experiment [8], 0.19 µg/mL; in [9], 0.14 µg/mL; in experiment [10] it was 0.422 µg/mL; in experiment [12], 0.152 µg/mL. The Kd in experiment [5] was 0.00916 nM; in experiment [13], not above 0.086 nM. In addition, in experiment [6], the EC50 came out at 248 µg/mL. In experiment [13], the koff is not above 4.27e-05 s⁻¹. The on-rate constant (kon) in experiment [7] worked out at 497000 M⁻¹ s⁻¹. The KD in [14] was less than 0.1 nM.
